According to patent US20090175872A1, “Treatment of Conditions Involving Demyelination” (BIOGEN Idec MA Inc., priority 2005, published 2009):

Assays:
mature oligodendrocytes = experiment: Mature oligodendrocyte survival and MBP expression; format: cell-based, rat
Method: Mature oligodendrocytes have a half-life in vitro of about 48 to 72 hours, with cells typically undergoing apoptosis after 72 hours. […] MBP expression was monitored as a marker for mature ologodendrocytes.

RhoA-GTP = RhoA-GTP levels in oligodendrocyte lysates (western blotting); format: cell-based, rat; details: versus corresponding control, FIG. 9A
Source text: A strong candidate signaling pathway that is implicated in the control of oligodendrocyte differentiation is the Rho family of GTPases. Rho GTPases regulate cellular morphology, and reduced RhoA-GTP amounts are required for oligodendrocyte differentiation. See Liang, X, et al., J. Neurosci. 24:7140-7149 (2004). To determine whether Sp35 signals through the RhoA pathway, RhoAGTP levels in cell lysates of oligodendrocytes treated with Sp35-Fc were compared with levels in the corresponding control via western blotting.

human ErbB2 = target: T1, human ErbB2 (Homo sapiens, UniProt P04626); experiment: AP-Sp35 binding to ErbB2-transfected CHO cells; details: pre-incubation with soluble fusion protein, FIG. 17B
T1 construct: expressed in transfected cells; host or cells: CHO cells, transient transfection with Fugene 6, assayed after 48 hours
Method: ErbB2 is a member of the type I family of transmembrane receptor tyrosine kinases. The family comprises four members: epidermal growth factor receptor (EGFR or ErbB1), ErB2 (HER2 or neu), ErbB3 and ErbB4. Oligodendrocyte differentiation is positively regulated by the ErbB2 receptor tyrosine kinase. To examine the potential interaction between Sp35 and ErB2, an N-terminal AP-tagged human Sp35 protein was tested for binding to human ErbB2-transfected Chinese hamster ovary (CHO) cells.
90% confluent CHO cells were transfected with various combinations of human ErbB2 vector expression plasmid using Fugene 6 reagents (Roche). After 48 hours, the transfected cells were washed with HBH (Hank's balanced salt solution, 1 mg/ml BSA, 20 mM HEPES (pH 7.0)) and incubated for 1.5 hours at 23° C. or […] with 4 μg/ml of AP-Sp35 (human placental alkaline phosphotase (AP) with an N-terminal six histidine tag, fused to the C-terminus of human Sp35 (residues 34-532), as described in Mi et al., Nat. Neurosci. 7:221-228 (2004)) or control AP-protein in HBH. Bound AP-Sp35 was detected directly or following detergent lysis of the cells by ELISA and enzymatic activity was quantified with 4-NPP as described in Mi et al. Nat. Neurosci. 7:221-228 (2004).
In order to identify the Sp35 domain that binds ErbB2, soluble truncated forms of AP-Sp35 were tested for binding. Both the LRR domain of Sp35 (amino acids 34-417 of SEQ ID NO:2) (AP-Sp35-LRR) and the extracellular domain of Sp35 (amino acids 34-532 of SEQ ID NO:2) (AP-Sp35) bound to ErbB2 expressed in CHO cells. […] FIGS. 17B and 17C.

cuprizone-treated mice = experiment: Cuprizone demyelination model, stereotactic injection into corpus callosum; format: in vivo; details: injected at 2, 2.5 and 3 weeks of cuprizone feeding
Source text: Adult wild-type C57B1/6 male mice were fed cuprizone (0.2% milled with ground mouse chow by weight) for 6 weeks to induce demyelination within the corpus callosum. Sp35-Fc was stereotactically injected into the demyelinating corpus callosum at 2, 2.5, and 3 weeks of cuprizone feeding. Control mice were stereotactically injected at the same intervals with sterilized media containing no Sp35-Fc. After 6 weeks of cuprizone feeding, the mice were returned to a normal diet for 2, 4 and 6 weeks (ground mouse chow only) to allow remyelination.
The cuprizone-treated mice were anesthetized with ketamine (80 mg/kg body weight) and xylazine (10 mg/kg body weight) and positioned in an immobilization apparatus designed for stereotactic surgery (David Kopf Instruments). The scalp was opened and the sterile compounds injected (1 μM in […] of HBSS) unilaterally into the acutely demyelinated corpus callosum of the wild-type recipient mice with a […] Hamilton syringe using stereotactic coordinates of 0.7 mm posterior and 0.3 mm lateral to bregrna at a depth of 1.7 mm (Messier et al., Pharmacol. Biochem. Behav. 63(2): 313-18 (1999)). Additionally, control recipient mice were stereotactically injected with HBSS containing no compounds. The opening in the skull was filled with Gelfoam, and the area was swabbed with penicillin and streptomycin (Gibco) and the wound was sutured. […]

A2B5+ oligodendrocytes = experiment: Differentiation of A2B5+ oligodendrocytes treated with Sp35-Fc (O4 staining); format: cell-based, rat; details: increasing concentrations versus control-Fc, 48 h, FIG. 8
Method: Enriched populations of oligodendrocytes were grown from female Long Evans P2 rats as described by Conn, Meth. Neurosci. 2:1-4 (Academic Press; 1990) with modifications as follows. Briefly, the forebrain was dissected and placed in Hank's buffered salt solution (IBSS; Invitrogen). The tissue was cut into 1-mm fragments and was incubated at 37° C. for 15 min in 0.01% trypsin and 10 μg/ml DNase. Dissociated cells were plated on poly-L-lysine-coated T75 tissue culture flasks and were grown at 37° C. for 10 d in DMEM medium with 20% fetal calf serum (Invitrogen). Oligodendrocyte precursors (A2B5^+) were collected by shaking the flask overnight at 200 rpm at 37° C., resulting in a 95% pure population. Cultures were maintained in high-glucose Dulbecco's modified Eagle's medium (DMEM with FGF/PDGF (10 ng/ml; Peprotech) for 1 week. Removal of FGF/PDGF allowed A2B5+ cells to differentiate into O4^+ premyelinating oligodendrocytes after 3-7 d, and to differentiate into O4^+ and MBP^+ mature oligodendrocytes after 7-10 d. These differentiation states are readily apparent from changes in morphology: AB5^+ cells are bipolar in shape, O4^+ premyelinating oligodendrocytes have longer and more branched processes and MBP^+ mature oligodendrocytes contain myelin sheet structures between processes. […]

B1: Sp35-Fc: extra-cellular portion of human Sp35 (residues 1-532) fused to the hinge and Fc region of human IgG1 (protein)
chain: TGCPPRCECSAQDRAVLCHRKRFVAVPEGIPTETRLLDLGKNRIKTLNQDEFASFPHLEELELNENIVSAVEPGAFNNLFNLRTLGLRSNRLKLIPLGVFTGLSNLTKLDISENKIVILLDYMFQDLYNLKSLEVGDNDLVYISHRAFSGLNSLEQLTLEKCNLTSIPTEALSHLHGLIVLRLRHLNINAIRDYSFKRLYRLKVLEISHWPYLDTMTPNCLYGLNLTSLSITHCNLTAVPYLAVRHLVYLRFLNLSYNPISTIEGSMLHELLRLQEIQLVGGQLAVVEPYAFRGLNYLRVLNVSGNQLTTLEESVFHSVGNLETLILDSNPLACDCRLLWVFRRRWRLNFNRQQPTCATPEFVQGKEFKDFPDVLLPNYFTCRRARIRDRKAQQVFVDEGHTVQFVCRADGDPPPAILWLSPRKHLVSAKSNGRLTVFPDGTLEVRYAQVQDNGTYLCIAANAGGNDSMPAHLHVRSYSPDWPHQPNKTFAFISNQPGE
modifications: left off: a dimerising Fc or GST
notes: extra-cellular portion of human Sp35 (residues 1-532) fused to the hinge and Fc region of human IgG1
survival rate for mature oligodendrocytes (mature oligodendrocytes; 10 μg/ml for 5 days, cell viability staining, versus control-Fc): significantly increased survival rate | increase in MBP protein expression (mature oligodendrocytes; cell staining and Western blot with anti-MBP antibody, versus control-Fc treated cells): approximately 3 fold | reduction in RhoA-GTP (RhoA-GTP): threefold reduction | AP-Sp35 binding to ErbB2-expressing cells after pre-incubation (human ErbB2): blocked | axon myelination by IHC using anti-MBP protein antibody or luxol fast blue (cuprizone-treated mice): increased | mature oligodendrocyte survival (CC1 antibody staining) (cuprizone-treated mice; FIG. 12): increased mature oligodendrocyte survival | differentiation of A2B5+ cells into O4+ cells (A2B5+ oligodendrocytes): promoted differentiation
